The results in this text go back to patent US20210113678A1.

Assay [1] has as its target HLA-A*0201 molecule on human T2 cells (human). Kind of assay: T2 cells expressing HLA-A*0201, anti-HLA-A2-PE, FACS (Example 9).
For assay [2] the target is unchanged. Kind of assay: T2 cells expressing HLA-A*0201, anti-HLA-A2-PE, FACS. To be noted: remark: other sources report otherwise.

B1: reference peptide HIV pol 589-597, P04585 1021-1029 (peptide)
peptide: IVGAETFYV
modifications: not checked
Molecule B1 registered an In vitro binding affinity (relative to reference peptide HIV pol 589-597) in assay [1] of 1.

B2: EGFR-H (peptide)
peptide: ILDEAYVMA
B2: in assay [2], the Concentration of peptide that induces 20% of HLA-A2 expression turned out to be 2.8 µM, the In vitro binding affinity (relative to reference peptide HIV pol 589-597) worked out at 0.2, the mean relative fluorescence intensity at 1.5625 µM peptide (% of HIV peptide) was determined as 12 and the mean relative fluorescence intensity at 3.125 µM peptide (% of HIV peptide) was 28.6. In assay [2], the mean relative fluorescence intensity at 6.25 µM peptide (% of HIV peptide) is 33.7, the mean relative fluorescence intensity at 25 µM peptide (% of HIV peptide) worked out at 91.5, the mean relative fluorescence intensity at 50 µM peptide (% of HIV peptide) was determined as 107 and the mean relative fluorescence intensity at 100 µM peptide (% of HIV peptide) was 87.4.
